Assay results published in US20260001928A1 (CORTERIA PHARMACEUTICALS, priority 2022, published 2026).
*1 amine or outer side, *2 acyl side, *3 side chain or, on linkers, in order; H or OH if unused. Where no end group is shown, it is not given here. Side-chain parts run from the residue outwards. [ ]: non-standard residue; d: D form. The star is where a group is joined. C18 diacid = O=C(O)CCCCCCCCCCCCCCCCC(=O)*; C16 diacid = O=C(O)CCCCCCCCCCCCCCC(=O)*; γGlu = O=C(O)[C@H](CCC(=O)[*:2])N[*:1]; NMeI = CC[C@H](C)[C@H](NC)C(=O)O; Api = NC1(C(=O)O)CCNCC1; Ac3c = NC1(C(=O)O)CC1; Aib = CC(C)(N)C(=O)O

T1: CRF1R receptor (UniProt P34998 24-415, limits assumed)
T1 sequence (looked up): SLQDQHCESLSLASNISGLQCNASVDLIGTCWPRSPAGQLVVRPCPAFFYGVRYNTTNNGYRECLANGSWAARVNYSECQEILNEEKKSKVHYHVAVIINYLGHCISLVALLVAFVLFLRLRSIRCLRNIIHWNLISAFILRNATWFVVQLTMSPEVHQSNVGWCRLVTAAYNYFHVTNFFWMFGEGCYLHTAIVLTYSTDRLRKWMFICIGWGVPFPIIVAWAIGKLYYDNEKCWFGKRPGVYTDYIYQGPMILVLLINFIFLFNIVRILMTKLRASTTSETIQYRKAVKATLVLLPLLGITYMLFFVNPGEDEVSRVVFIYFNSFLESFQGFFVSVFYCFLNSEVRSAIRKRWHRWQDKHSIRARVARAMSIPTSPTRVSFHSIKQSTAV

B1: SEQ ID NO 61 (peptide)
peptide: Ac-IVLSLD[dV]PIKLK([γGlu-C16 diacid])KILLEQEKQKKQREQAETN[Ac3c]QILAQV-NH2
SMILES: CC[C@H](C)[C@H](NC(C)=O)C(=O)N[C@H](C(=O)N[C@@H](CC(C)C)C(=O)N[C@@H](CO)C(=O)N[C@@H](CC(C)C)C(=O)N[C@@H](CC(=O)O)C(=O)N[C@@H](C(=O)N1CCC[C@H]1C(=O)N[C@H](C(=O)N[C@@H](CCCCN)C(=O)N[C@@H](CC(C)C)C(=O)N[C@@H](CCCCNC(=O)CC[C@H](NC(=O)CCCCCCCCCCCCCCC(=O)O)C(=O)O)C(=O)N[C@@H](CCCCN)C(=O)N[C@H](C(=O)N[C@@H](CC(C)C)C(=O)N[C@@H](CC(C)C)C(=O)N[C@@H](CCC(=O)O)C(=O)N[C@@H](CCC(N)=O)C(=O)N[C@@H](CCC(=O)O)C(=O)N[C@@H](CCCCN)C(=O)N[C@@H](CCC(N)=O)C(=O)N[C@@H](CCCCN)C(=O)N[C@@H](CCCCN)C(=O)N[C@@H](CCC(N)=O)C(=O)N[C@@H](CCCNC(=N)N)C(=O)N[C@@H](CCC(=O)O)C(=O)N[C@@H](CCC(N)=O)C(=O)N[C@@H](C)C(=O)N[C@@H](CCC(=O)O)C(=O)N[C@H](C(=O)N[C@@H](CC(N)=O)C(=O)NC1(C(=O)N[C@@H](CCC(N)=O)C(=O)N[C@H](C(=O)N[C@@H](CC(C)C)C(=O)N[C@@H](C)C(=O)N[C@@H](CCC(N)=O)C(=O)N[C@H](C(N)=O)C(C)C)[C@@H](C)CC)CC1)[C@@H](C)O)[C@@H](C)CC)[C@@H](C)CC)C(C)C)C(C)C
B2: SEQ ID NO 136 (peptide)
peptide: Ac-IVLSLD[dV]PIKLK([γGlu-C18 diacid])KILLEQEKQKKQREQAETN[Ac3c]QILAQV-NH2
SMILES: CC[C@H](C)[C@H](NC(C)=O)C(=O)N[C@H](C(=O)N[C@@H](CC(C)C)C(=O)N[C@@H](CO)C(=O)N[C@@H](CC(C)C)C(=O)N[C@@H](CC(=O)O)C(=O)N[C@@H](C(=O)N1CCC[C@H]1C(=O)N[C@H](C(=O)N[C@@H](CCCCN)C(=O)N[C@@H](CC(C)C)C(=O)N[C@@H](CCCCNC(=O)CC[C@H](NC(=O)CCCCCCCCCCCCCCCCC(=O)O)C(=O)O)C(=O)N[C@@H](CCCCN)C(=O)N[C@H](C(=O)N[C@@H](CC(C)C)C(=O)N[C@@H](CC(C)C)C(=O)N[C@@H](CCC(=O)O)C(=O)N[C@@H](CCC(N)=O)C(=O)N[C@@H](CCC(=O)O)C(=O)N[C@@H](CCCCN)C(=O)N[C@@H](CCC(N)=O)C(=O)N[C@@H](CCCCN)C(=O)N[C@@H](CCCCN)C(=O)N[C@@H](CCC(N)=O)C(=O)N[C@@H](CCCNC(=N)N)C(=O)N[C@@H](CCC(=O)O)C(=O)N[C@@H](CCC(N)=O)C(=O)N[C@@H](C)C(=O)N[C@@H](CCC(=O)O)C(=O)N[C@H](C(=O)N[C@@H](CC(N)=O)C(=O)NC1(C(=O)N[C@@H](CCC(N)=O)C(=O)N[C@H](C(=O)N[C@@H](CC(C)C)C(=O)N[C@@H](C)C(=O)N[C@@H](CCC(N)=O)C(=O)N[C@H](C(N)=O)C(C)C)[C@@H](C)CC)CC1)[C@@H](C)O)[C@@H](C)CC)[C@@H](C)CC)C(C)C)C(C)C
B3: SEQ ID NO 74 (peptide)
peptide: [NMeI]VLSLD[dV]PIKLK([γGlu-C16 diacid])KILLEQEKQKAQREQAETN[Aib]QILAQV-NH2
modifications: N-terminus assumed
SMILES: CC[C@H](C)[C@H](NC)C(=O)N[C@H](C(=O)N[C@@H](CC(C)C)C(=O)N[C@@H](CO)C(=O)N[C@@H](CC(C)C)C(=O)N[C@@H](CC(=O)O)C(=O)N[C@@H](C(=O)N1CCC[C@H]1C(=O)N[C@H](C(=O)N[C@@H](CCCCN)C(=O)N[C@@H](CC(C)C)C(=O)N[C@@H](CCCCNC(=O)CC[C@H](NC(=O)CCCCCCCCCCCCCCC(=O)O)C(=O)O)C(=O)N[C@@H](CCCCN)C(=O)N[C@H](C(=O)N[C@@H](CC(C)C)C(=O)N[C@@H](CC(C)C)C(=O)N[C@@H](CCC(=O)O)C(=O)N[C@@H](CCC(N)=O)C(=O)N[C@@H](CCC(=O)O)C(=O)N[C@@H](CCCCN)C(=O)N[C@@H](CCC(N)=O)C(=O)N[C@@H](CCCCN)C(=O)N[C@@H](C)C(=O)N[C@@H](CCC(N)=O)C(=O)N[C@@H](CCCNC(=N)N)C(=O)N[C@@H](CCC(=O)O)C(=O)N[C@@H](CCC(N)=O)C(=O)N[C@@H](C)C(=O)N[C@@H](CCC(=O)O)C(=O)N[C@H](C(=O)N[C@@H](CC(N)=O)C(=O)NC(C)(C)C(=O)N[C@@H](CCC(N)=O)C(=O)N[C@H](C(=O)N[C@@H](CC(C)C)C(=O)N[C@@H](C)C(=O)N[C@@H](CCC(N)=O)C(=O)N[C@H](C(N)=O)C(C)C)[C@@H](C)CC)[C@@H](C)O)[C@@H](C)CC)[C@@H](C)CC)C(C)C)C(C)C
B4: SEQ ID NO 75 (peptide)
peptide: [NMeI]VLSLD[dV]PIKLK([γGlu-C16 diacid])KILLEQEKQK[Aib]QREQAETN[Aib]QILAQV-NH2
modifications: N-terminus assumed
SMILES: CC[C@H](C)[C@H](NC)C(=O)N[C@H](C(=O)N[C@@H](CC(C)C)C(=O)N[C@@H](CO)C(=O)N[C@@H](CC(C)C)C(=O)N[C@@H](CC(=O)O)C(=O)N[C@@H](C(=O)N1CCC[C@H]1C(=O)N[C@H](C(=O)N[C@@H](CCCCN)C(=O)N[C@@H](CC(C)C)C(=O)N[C@@H](CCCCNC(=O)CC[C@H](NC(=O)CCCCCCCCCCCCCCC(=O)O)C(=O)O)C(=O)N[C@@H](CCCCN)C(=O)N[C@H](C(=O)N[C@@H](CC(C)C)C(=O)N[C@@H](CC(C)C)C(=O)N[C@@H](CCC(=O)O)C(=O)N[C@@H](CCC(N)=O)C(=O)N[C@@H](CCC(=O)O)C(=O)N[C@@H](CCCCN)C(=O)N[C@@H](CCC(N)=O)C(=O)N[C@@H](CCCCN)C(=O)NC(C)(C)C(=O)N[C@@H](CCC(N)=O)C(=O)N[C@@H](CCCNC(=N)N)C(=O)N[C@@H](CCC(=O)O)C(=O)N[C@@H](CCC(N)=O)C(=O)N[C@@H](C)C(=O)N[C@@H](CCC(=O)O)C(=O)N[C@H](C(=O)N[C@@H](CC(N)=O)C(=O)NC(C)(C)C(=O)N[C@@H](CCC(N)=O)C(=O)N[C@H](C(=O)N[C@@H](CC(C)C)C(=O)N[C@@H](C)C(=O)N[C@@H](CCC(N)=O)C(=O)N[C@H](C(N)=O)C(C)C)[C@@H](C)CC)[C@@H](C)O)[C@@H](C)CC)[C@@H](C)CC)C(C)C)C(C)C
B5: SEQ ID NO 152 (peptide)
peptide: Ac-IVLSLD[dV]PIKLK([γGlu-C16 diacid])KILLEQEKQKAQREQAETN[Api]QILAQV-NH2
SMILES: CC[C@H](C)[C@H](NC(C)=O)C(=O)N[C@H](C(=O)N[C@@H](CC(C)C)C(=O)N[C@@H](CO)C(=O)N[C@@H](CC(C)C)C(=O)N[C@@H](CC(=O)O)C(=O)N[C@@H](C(=O)N1CCC[C@H]1C(=O)N[C@H](C(=O)N[C@@H](CCCCN)C(=O)N[C@@H](CC(C)C)C(=O)N[C@@H](CCCCNC(=O)CC[C@H](NC(=O)CCCCCCCCCCCCCCC(=O)O)C(=O)O)C(=O)N[C@@H](CCCCN)C(=O)N[C@H](C(=O)N[C@@H](CC(C)C)C(=O)N[C@@H](CC(C)C)C(=O)N[C@@H](CCC(=O)O)C(=O)N[C@@H](CCC(N)=O)C(=O)N[C@@H](CCC(=O)O)C(=O)N[C@@H](CCCCN)C(=O)N[C@@H](CCC(N)=O)C(=O)N[C@@H](CCCCN)C(=O)N[C@@H](C)C(=O)N[C@@H](CCC(N)=O)C(=O)N[C@@H](CCCNC(=N)N)C(=O)N[C@@H](CCC(=O)O)C(=O)N[C@@H](CCC(N)=O)C(=O)N[C@@H](C)C(=O)N[C@@H](CCC(=O)O)C(=O)N[C@H](C(=O)N[C@@H](CC(N)=O)C(=O)NC1(C(=O)N[C@@H](CCC(N)=O)C(=O)N[C@H](C(=O)N[C@@H](CC(C)C)C(=O)N[C@@H](C)C(=O)N[C@@H](CCC(N)=O)C(=O)N[C@H](C(N)=O)C(C)C)[C@@H](C)CC)CCNCC1)[C@@H](C)O)[C@@H](C)CC)[C@@H](C)CC)C(C)C)C(C)C
B6: SEQ ID NO 153 (peptide)
peptide: Ac-IVLSLD[dV]PIKLK([γGlu-C16 diacid])KILLEQEKQK[Aib]QREQAETN[Api]QILAQV-NH2
SMILES: CC[C@H](C)[C@H](NC(C)=O)C(=O)N[C@H](C(=O)N[C@@H](CC(C)C)C(=O)N[C@@H](CO)C(=O)N[C@@H](CC(C)C)C(=O)N[C@@H](CC(=O)O)C(=O)N[C@@H](C(=O)N1CCC[C@H]1C(=O)N[C@H](C(=O)N[C@@H](CCCCN)C(=O)N[C@@H](CC(C)C)C(=O)N[C@@H](CCCCNC(=O)CC[C@H](NC(=O)CCCCCCCCCCCCCCC(=O)O)C(=O)O)C(=O)N[C@@H](CCCCN)C(=O)N[C@H](C(=O)N[C@@H](CC(C)C)C(=O)N[C@@H](CC(C)C)C(=O)N[C@@H](CCC(=O)O)C(=O)N[C@@H](CCC(N)=O)C(=O)N[C@@H](CCC(=O)O)C(=O)N[C@@H](CCCCN)C(=O)N[C@@H](CCC(N)=O)C(=O)N[C@@H](CCCCN)C(=O)NC(C)(C)C(=O)N[C@@H](CCC(N)=O)C(=O)N[C@@H](CCCNC(=N)N)C(=O)N[C@@H](CCC(=O)O)C(=O)N[C@@H](CCC(N)=O)C(=O)N[C@@H](C)C(=O)N[C@@H](CCC(=O)O)C(=O)N[C@H](C(=O)N[C@@H](CC(N)=O)C(=O)NC1(C(=O)N[C@@H](CCC(N)=O)C(=O)N[C@H](C(=O)N[C@@H](CC(C)C)C(=O)N[C@@H](C)C(=O)N[C@@H](CCC(N)=O)C(=O)N[C@H](C(N)=O)C(C)C)[C@@H](C)CC)CCNCC1)[C@@H](C)O)[C@@H](C)CC)[C@@H](C)CC)C(C)C)C(C)C

molecular target: T1, CRF1R receptor; test: cell-based or functional assay

Compared with B1, B2 is higher in “Emax (% I)” value: 3% for the first, 5% for the second.

Compared with B3, B4 is lower in “Emax (% I)” value: 7% for the first, 3% for the second.

Compared with B5, B6 is lower in “Emax (% I)” value: 25% for the first, 22% for the second.

In the case of VLSLD[dV]PIKLK([γGlu-C16 diacid])QILLKQERQKKQREQAEKNKQILEQV-NH2 [SEQ ID NO 4], the “Emax (% I)” value is reported as 4%.

In the case of VLSLD[dV]PIKLK([γGlu-C16 diacid])QILLKQERQKKQREQAEKNKQILEQV-NH2 [SEQ ID NO 4], the “EC50” value is reported as greater than 250 nM.

molecular target: human corticotropin-releasing factor 2a (CRF2a receptor) (human), Q13324; test: cell-based or functional assay
Sequence (Q13324 20-411): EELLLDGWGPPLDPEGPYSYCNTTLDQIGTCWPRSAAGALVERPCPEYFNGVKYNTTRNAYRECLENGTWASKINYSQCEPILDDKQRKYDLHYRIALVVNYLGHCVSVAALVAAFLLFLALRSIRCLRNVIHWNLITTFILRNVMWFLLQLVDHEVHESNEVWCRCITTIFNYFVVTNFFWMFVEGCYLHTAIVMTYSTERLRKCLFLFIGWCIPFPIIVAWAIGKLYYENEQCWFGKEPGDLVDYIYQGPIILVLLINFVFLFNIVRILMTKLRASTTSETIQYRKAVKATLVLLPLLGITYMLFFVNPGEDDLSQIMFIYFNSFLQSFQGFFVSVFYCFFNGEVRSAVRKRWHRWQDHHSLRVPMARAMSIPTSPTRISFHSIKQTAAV

Going from B1 to B2, the EC50 [nM] (cAMP) falls from 0.36 nM to 0.16 nM (2.2-fold).

B3 and B4 are within 1.5-fold of each other in EC50 [nM] (cAMP): 0.15 nM for the first, 0.19 nM for the second.

B5 and B6 are within 1.5-fold of each other in EC50 [nM] (cAMP): 0.51 nM for the first, 0.41 nM for the second.

VLSLD[dV]PIKLK([γGlu-C16 diacid])QILLKQERQKKQREQAEKNKQILEQV-NH2 [SEQ ID NO 4] gave an EC50 [nM] (cAMP) of 0.44 nM.
